Two molecules from US7795217B2, “Methods and compositions for cell-cycle regulation” (priority 2005, dated 2010) can be followed below.

For series [1], the target named is T1, KAP (Homo sapiens, UniProt Q16667).
T1 construct: Full-length KAP protein was coupled to a sensor chip CM-5 shell; made in house
T1 sequence (Q16667 1-212): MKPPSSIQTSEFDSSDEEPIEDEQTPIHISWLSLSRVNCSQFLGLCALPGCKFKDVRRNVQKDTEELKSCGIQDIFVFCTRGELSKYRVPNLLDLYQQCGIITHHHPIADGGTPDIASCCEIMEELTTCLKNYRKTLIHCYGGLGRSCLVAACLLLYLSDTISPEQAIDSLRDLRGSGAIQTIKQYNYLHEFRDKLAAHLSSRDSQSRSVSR
Put plainly: Surface plasmon resonance (BioSensor Biacore) protein interaction assay. Type of series: binding. The conditions noted are these: for binding to KAP-coupled sensor chip (increase in mass): versus uncoupled or nonspecifically coupled chips. On the procedure: The immobilization of proteins to sensor chips (CM-5 chip) was performed using a carbodiimide covalent linkage protocol (Amersham Biosciences). KAP was coupled to the sensor chip at 2,800 resonance units (RU). Nonspecific human immunoglobin was coupled to the surface of the sensor chip (anti-β 2m antibody BBM.1) at 2,900 RU. Protein interaction assays were carried out using the BioSensor Biacore 2000 (Biacore). An HTm4 C-terminal peptide composed of 22 amino acids ([…] SEQ ID NO:3) was synthesized. Either full-length HTm4 protein (20 μM), or HTm4 C-terminal peptide (1 mM) in 50 mM HEPES containing 1 mM EDTA, 1 mM DTT, 5% glycerol, and 0.1% Tween 20 was examined at a flow rate of 10 μl/min.
Surface plasmon resonance was used to detect direct binding of purified HTm4 to KAP. Full-length KAP protein was coupled to a sensor chip CM-5 shell (Amersham Biosciences).
The interactions of HTm4 with immobilized proteins were analyzed on a sensor chip (CM-5) cell. KAP was coupled to the surface of the sensor chip at 2,800 RU; nonspecific human immunoglobulin (NS) was coupled to the surface of the sensor chip (anti-β2m antibody BBM.1) at 2,900 RU; UC, uncoupled sensor chip. Binding of 20 μM full-length HTm4 protein in 50 mM HEPES containing 1 mM EDTA, 1 mM DTT, 5% glycerol, and 0.1% Tween 20 was examined at a flow rate of 10 μl/min. […] The interactions of HTm4 with immobilized proteins were analyzed on a sensor chip (CM-5) cell. KAP was coupled to the surface of the sensor chip at 2,800 RU; nonspecific human immunoglobulin was coupled on the surface of the sensor chip (anti-β 2m antibody BBM.1) at 2,900 RU. Binding of 1 mM HTm4 C-terminal peptide in 50 mM HEPES containing 1 mM EDTA, 1 mM DTT, 5% glycerol, and 0.1% Tween 20 was examined at a flow rate of 10 μl/min. Responses from uncoupled cells were subtracted.

In series [2] the target is T2, KAP phosphatase (Homo sapiens, UniProt Q16667). Put plainly: KAP phosphatase activity assay, hydrolysis of pNPP. Type of series: biochemical. On the procedure: KAP phosphatase activity was examined by the detection of hydrolysis of p-nitrophenyl phosphate (pNPP) (WAKO) as described previously (Song, H., Hanlon, N., Brown, N. R., Noble, M. E., Johnson, L. N., and Barford, D. (2001) Mol. Cell. 7, 615-626). The time course of phosphatase activity for KAP was examined. 20 μl of reaction mixture containing 50 mM Tris-HCl, pH 7.5, 0.15 M NaCl, 2 mM DTT, 0.5 mM EDTA, 3 mM pNPP, 40 μM KAP, 4 μM cdk cyclin A (Upstate Biotechnology), and 20 μM HTm4 was incubated at 30° C. for the indicated times. The reaction was halted by the addition of 0.1 M NaOH. The phosphatase activity in 5 μl of each sample was measured as A410. To investigate the effect of HTm4 on KAP, KAP phosphatase activity was assessed with different HTm4 concentrations in the presence of pNPP. Reaction velocity was measured in the presence of 0.0025-20 μM HTm4.
(§1) 20 μl of reaction mixture containing 50 mM Tris-HCl, pH 7.5, 0.15 M NaCl, 2 mM DTT, 0.5 mM EDTA, 3 mM pNPP, 40 μM KAP, 4 μM cdk2.cyclin A, and 20 μM HTm4 was incubated at 30° C. for the indicated times. The reaction was halted by the addition of 0.1 M NaOH. The phosphatase activity in 5 μl of each sample was measured at 410 nm. […] KAP phosphatase activity was assessed in the presence of increasing amounts of HTm4 using pNPP as the KAP substrate. The reaction velocity was measured in the presence of 0.0025-20 μM HTm4. All reaction mixtures contained 40 μM KAP and 4 μM active cdk2.cyclin A. Reactions were repeated in triplicate. Their average values and standard deviations are shown. […] KAP phosphatase activity was assessed using the Ser/Thr Assay Kit 1 with different concentrations of active cdk2.cyclin A (from 4 to 20 μM) as the substrate in the presence or absence of 40 μM HTm4. […] KAP phosphatase activity was assessed using the Ser/Thr Assay Kit 1 with different concentrations of active cdk2.cyclin A (from 4 to 20 μM) as the substrate in the presence or absence of 40 μM HTm4.

The target of series [3] is T1, KAP. Put plainly: Circular dichroism spectroscopy of KAP. The conditions noted are these: 5 μM KAP, 50 μM HTm4 C-peptide, 250 to 320 nm. On the procedure: Circular Dichroism (CD) spectroscopic measurements were performed on a Jasco J-700 (Jasco, Japan). Spectra measurements were recorded from 250 to 320 nm. The spectra change of KAP was measured by comparing two different KAP samples in the same solution (20 mM Tris-HCl, pH 7.2, 0.15 M NaCl). Sample A contained 5 μM KAP and an excess amount of HTm4 C-peptide (50 μM). The contents of sample B were identical to those in sample A, except for HTm4 C-peptide. The difference in spectra was further converted to parameter (mean residue ellipticity) and plotted on the graph in FIG. 4.
Spectra measurements were recorded from 250 to 320 nm. The spectra change of KAP was measured by comparing two different KAP samples in the same solution (20 mM Tris-HCl, pH 7.2, 0.15 M NaCl). Sample A contains 5 μM KAP and an excess amount of HTm4 C-peptide (50 μM). Sample B was formulated as Sample A, with the exception of the HTm4 C-peptide. The difference in spectra was further converted to parameter (mean residue ellipticity) and plotted.

The target in series [4] is T2, KAP phosphatase. Put plainly: Kinetic measurements of KAP phosphatase with active cdk2.cyclin A as substrate (Lineweaver-Burk plot). Type of series: biochemical. The conditions noted are these: 40 μM HTm4, active cdk2.cyclin A 4 to 20 μM as substrate. On the procedure: To investigate the effect of HTm4 on KAP, the initial reaction velocity of KAP was assessed using different concentrations of active cdk2.cyclin A as the substrate in the presence or absence of HTm4. The results were analyzed further using a Lineweaver-Burk plot.
as §1

In series [5] the target is T3, KAP phosphatase (Homo sapiens, UniProt Q16667).
T3 construct: made in house
T3 sequence (Q16667 1-212): T1 sequence (Q16667 1-212)
Put plainly: KAP dephosphorylation of peptide or protein substrates (Ser/Thr Phosphatase Assay Kit 1). The conditions noted are these: 30 min at 30° C. Type of series: biochemical. On the procedure: KAP dephosphorylation of phosphorylated proteins or peptide substrates was examined using the Ser/Thr Phosphatase Assay Kit 1 (Upstate Biotechnology) according to the manufacturer's instructions. Phosphorylated Thr^160 of cdk2 and K-R-pT-I-R-R peptide were used as substrates for the assay. Concentrations of KAP and HTm4 were both 20 μM; concentrations of p-cdk2 and peptide substrates (K-R-pT-I-R-R) were 10 and 25 μM, respectively. Reactions were performed in pNPP Ser/Thr Assay Buffer, containing 50 mM Tris-HCl, pH 7.0, and 100 μM CaCl2. To examine the importance of the HTm4 C-terminal region and to confirm the KAP phosphatase activity enhancement effect of HTm4, an HTm4 C-terminal peptide composed of 22 amino acids ([…] SEQ ID NO:3) was synthesized. The phosphatase enhancement activity of the HTm4 C-terminal region was examined using the assay protocol described above.
KAP dephosphorylation of phosphorylated proteins or peptide substrates was examined using the Ser/Thr Phosphatase Assay Kit 1 according to the manufacturer's instructions. Phosphorylated Thr^160 of cdk2 (p-cdk2) and K-R-pT-I-R-R peptides (SEQ ID NO:4) were used as substrates for the assay. […]
Phosphorylated threonine 160 from cdk2.cyclin A, active, and phosphopeptide (K-R-pT-I-R-R) were used as substrates to assess KAP activity. […] The reaction was allowed to proceed for 30 min at 30° C., and absorbance was measured at 650 nm.

Series [6] concerns the target KAP.cdk2.cyclin A complex (Homo sapiens, UniProt Q16667). As to the kind of experiment: Cyclin A dissociation assay. Type of series: biochemical. The note with it: 1 or 10 μM HTm4 without His tag, His-tagged KAP pull-down. On the procedure: The status of the cdk2.cyclin A complex was examined in the presence and absence of HTm4. […] The bound fractions were resolved by SDS-PAGE and Western blotted for the presence of cyclin A (Santa Cruz Biotechnology). An alkaline phosphatase conjugated to anti-rabbit IgG (EY Laboratory) was used to visualize the amount of bound cyclin A present in the KAP cdk2 complex. […] After incubating at room temperature for 5 min, either 10 μl of 10 μM HTm4 (without His tag) or its buffer was added to the reaction mixture. After incubating at room temperature for 5 min, 5 μl of nickel magnet beads was added to each mixture. […] The gel was stained with a silver staining kit (ATTO).
After that, 5 μl of nickel magnet beads was added. Bound fractions were electrophoresed by SDS-PAGE and then detected by Western blotting with anti-cyclin A antibody as the primary antibody, and alkaline phosphatase-conjugated anti-rabbit IgG was used as the secondary antibody. The band of cyclin A is indicated with an arrow. […] After incubation at room temperature for 5 min, 10 μl of 10 μM HTm4 (without His tag) or its buffer was added to the mixture and allowed to incubate at room temperature for 5 mins. 5 μl of nickel magnet beads was added to each mixture. […] The gel was then silver stained. Bands of cyclin A, cdk2, and KAP are indicated with arrows.

For the molecule “CNANCCNSREEISSPPNSV (Synthetic HTm4 C-terminal Peptide) [HTm4 C-peptide]”, the “binding to KAP-coupled sensor chip (increase in mass)” value with KAP [1] (1 mM HTm4 C-terminal peptide, flow rate 10 μl/min) was “immediate increase in mass was observed”. In addition, the “enhancement effect on KAP phosphatase activity compared with HTm4 wild-type protein” value with KAP phosphatase [2] (C-terminal peptide at 0.1 mM, pNPP substrate) is “comparable enhancement effect”. For the same molecule, in the series with KAP [3], the “CD difference spectrum of KAP with versus without C-peptide” value is on record as “spectral change was found at 270-280 nm”.

B1: HTm4: Recombinant human HTm4 (MS4A3) full-length protein purified from E. coli, His tag cleaved (protein, listed as Homo sapiens)
chain: MASHEVDNAELGSASAHGTPGSEAGPEELNTSVYQPIDGSPDYQKAKLQVLGAIQILNAAMILALGVFLGSLQYPYHFQKHFFFFTFYTGYPIWGAVFFCSSGTLSVVAGIKPTRTWIQNSFGMNIASATIALVGTAFLSLNIAVNIQSLRSCHSSSESPDLCNYMGSISNGMVSLLLILTLLELCVTISTIAMWCNANCCNSREEISSPPNSV
As to B1, the “binding to KAP-coupled sensor chip (increase in mass)” value with KAP [1] (20 μM full-length HTm4, flow rate 10 μl/min) was “immediate increase in mass was observed”. For the same molecule, the “KAP/HTm4 selective binding after premixing HTm4 with KAP” value with KAP [1] (premixed with KAP, data not shown) is reported as “abolished”. The “KAP phosphatase activity toward pNPP substrate” value with KAP phosphatase [2] (20 μM HTm4, wild-type KAP, 4 μM active cdk2.cyclin A) is “significantly enhanced”. Moreover, the “effect of increasing HTm4 on KAP phosphatase activity (reaction velocity)” value with KAP phosphatase [2] (0.0025-20 μM HTm4, pNPP substrate, 40 μM KAP, 4 μM active cdk2.cyclin A) is “linearly increased”. Also, in the series with KAP phosphatase [4], the “Vmax of KAP phosphatase activity in the presence of HTm4” value was 17.5 nM/min. In addition, the Km in the series with KAP phosphatase [4] (read-out: Km of KAP phosphatase activity in the presence of HTm4) is 8.33 µM. Moreover, in the series with KAP phosphatase [5] (20 μM KAP and HTm4, 10 μM p-cdk2 in the cdk2.cyclin A complex), the “increase of dephosphorylating activity of KAP toward phosphorylated cdk2” value is on record as “more than 6 fold”. In addition, the “KAP dephosphorylation of synthesized phosphopeptide K-R-pT-I-R-R” value with KAP phosphatase [5] (20 μM KAP and HTm4, 25 μM peptide substrate) is recorded as “potentiates dephosphorylation”. The “dissociation of cyclin A from the KAP.cdk2.cyclin A complex” value in series [6] was “dissociated from the complex in a dose-dependent manner”.

By Km is commonly meant the substrate concentration at which the rate is half of its maximum.
